Patent US20190270817A1

Legend:
IL-21R-Fc = IL-21R-Fc (UniProt Q9HBE5); assay: ForteBio Octet
[1] = target: cynomolgus monkey IL-21R-FLAG-His (monovalent) (cynomolgus monkey) (UniProt G7Q0S8); assay: Octet, immobilized monovalent IL-21R-his
[2] = target: human IL-21R-FLAG-His (monovalent) (human) (UniProt Q9HBE5); assay: Octet, immobilized monovalent IL-21R-his
IL-21R on Hut78 T cells = IL-21R on Hut78 T cells (UniProt Q9HBE5); assay: cell-based or functional assay
cynoPD1(1-167)-Flag-His = cynoPD1(1-167)-Flag-His (UniProt Q15116); assay: Octet
[3] = target: cynomolgus monkey PD-1(1-167)-FLAG-His (cynomolgus monkey); assay: Octet, fusion amine-coupled to tips
[4] = target: human PD-1(1-170)-FLAG-His (human) (UniProt Q15116); assay: Octet, fusion amine-coupled to tips
[5] = target: human PD-1 on cells (human) (UniProt Q15116); assay: cell-based or functional assay
[6] = target: human IL-21R, recombinant soluble (FLAG-His or Fc, not stated which) (human) (UniProt Q9HBE5); assay: not stated in the table (Octet per Example 11)
[7] = target: human PD-1(1-170)-FLAG-His (human) (UniProt Q15116); assay: not stated in the table (Octet per Example 11)

Sequence of IL-21R on Hut78 T cells (Q9HBE5 20-538 limits assumed): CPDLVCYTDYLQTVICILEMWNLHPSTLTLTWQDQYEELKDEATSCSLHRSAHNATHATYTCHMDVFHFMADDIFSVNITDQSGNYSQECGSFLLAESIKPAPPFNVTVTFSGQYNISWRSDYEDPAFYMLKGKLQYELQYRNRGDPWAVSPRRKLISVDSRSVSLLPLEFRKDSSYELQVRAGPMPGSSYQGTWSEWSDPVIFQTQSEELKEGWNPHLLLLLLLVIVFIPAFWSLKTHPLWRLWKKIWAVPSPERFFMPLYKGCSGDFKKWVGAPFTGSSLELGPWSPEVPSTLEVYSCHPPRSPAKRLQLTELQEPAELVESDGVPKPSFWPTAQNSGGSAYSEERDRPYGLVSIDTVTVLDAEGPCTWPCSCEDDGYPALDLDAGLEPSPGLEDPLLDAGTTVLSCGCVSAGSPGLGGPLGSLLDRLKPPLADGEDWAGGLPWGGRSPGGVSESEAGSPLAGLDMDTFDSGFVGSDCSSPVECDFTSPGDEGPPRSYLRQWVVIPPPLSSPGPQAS
Sequence of human PD-1(1-170)-FLAG-His (human) (Q15116 21-170 limits assumed): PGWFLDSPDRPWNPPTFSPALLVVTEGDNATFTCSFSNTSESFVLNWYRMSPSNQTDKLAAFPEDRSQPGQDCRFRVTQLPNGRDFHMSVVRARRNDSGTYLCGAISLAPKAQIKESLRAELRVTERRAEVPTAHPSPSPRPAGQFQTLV
Sequence of human IL-21R-FLAG-His (monovalent) (human) (Q9HBE5 20-232 limits assumed): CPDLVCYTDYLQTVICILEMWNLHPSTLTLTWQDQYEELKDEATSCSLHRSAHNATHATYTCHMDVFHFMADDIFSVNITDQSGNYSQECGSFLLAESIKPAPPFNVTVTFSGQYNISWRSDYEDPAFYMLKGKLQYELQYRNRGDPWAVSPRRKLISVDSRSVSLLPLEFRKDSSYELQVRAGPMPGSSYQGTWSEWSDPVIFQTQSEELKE
Sequence of IL-21R-Fc (Q9HBE5 20-232 limits assumed): as above
Sequence of cynomolgus monkey PD-1(1-167)-FLAG-His (cynomolgus monkey) (Q15116 other isoform, or with tags, fused parts or gaps): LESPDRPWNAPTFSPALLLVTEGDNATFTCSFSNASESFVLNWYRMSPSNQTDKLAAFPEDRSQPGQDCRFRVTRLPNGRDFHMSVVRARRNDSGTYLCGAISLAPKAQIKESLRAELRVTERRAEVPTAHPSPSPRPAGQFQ
Sequence of cynoPD1(1-167)-Flag-His (Q15116 other isoform, or with tags, fused parts or gaps): as above
Sequence of human IL-21R, recombinant soluble (FLAG-His or Fc, not stated which) (human) (Q9HBE5 20-232 limits assumed): as the sequence (Q9HBE5 20-232 limits assumed) above
Sequence of human PD-1 on cells (human) (Q15116 25-288 limits assumed): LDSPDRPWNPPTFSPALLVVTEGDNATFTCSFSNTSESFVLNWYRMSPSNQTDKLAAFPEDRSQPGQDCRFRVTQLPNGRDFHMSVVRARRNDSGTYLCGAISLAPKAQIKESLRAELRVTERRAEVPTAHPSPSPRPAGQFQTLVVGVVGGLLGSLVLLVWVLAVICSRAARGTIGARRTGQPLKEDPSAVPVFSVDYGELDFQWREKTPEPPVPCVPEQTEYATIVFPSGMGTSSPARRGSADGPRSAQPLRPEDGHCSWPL

Substance | Kd (IL-21R-Fc) [nM] | further results
PD-1 mAb x IL-21 Q12T (Mutant 41) (from UniProt Q9HBE4 30-162) | < 0.26 | 
PD-1 mAb x IL-21 K73D (Mutant 64) (from UniProt Q9HBE4 30-162) | 0.435 | 
PD-1 mAb x IL-21 I14S (Mutant c5) (from UniProt Q9HBE4 30-162) | 0.166 | 
PD-1 mAb x IL-21 R76N (Mutant 86) (from UniProt Q9HBE4 30-162) | 15.3 | 
PD-1 mAb x IL-21 R76A (Mutant 77) |  | Kd [1]: > 10 nM; Kd [2]: > 10 nM
PD-1 mAb x IL-21 K77G (Mutant 94) (from UniProt Q9HBE4 30-162) | 0.658 | 
PD-1 mAb x IL-21 D15E (Mutant c7) (from UniProt Q9HBE4 30-162) | 0.249 | 
PD-1 mAb x IL-21 I66D (Mutant 51) (from UniProt Q9HBE4 30-162) | 0.677 | 
PD-1 mAb x IL-21 D15M (Mutant c9) (from UniProt Q9HBE4 30-162) | 0.163 | 
PD-1 mAb x IL-21 R9G (Mutant 24) (from UniProt Q9HBE4 30-162) | 40 | 
PD-1 mAb x IL-21 Q12D (Mutant 37) (from UniProt Q9HBE4 30-162) | 0.42 | 
PD-1 mAb x IL-21 K73A (Mutant 63) (from UniProt Q9HBE4 30-162) | 0.0525 | 
PD-1 mAb x IL-21 R11D (Mutant c1) (from UniProt Q9HBE4 30-162) | 0.411 | 
PD-1 mAb x IL-21 S113K (Mutant C18) (from UniProt Q9HBE4 30-162) | 8.1 | 
PD-1 mAb x IL-21 K73I (Mutant 68) (from UniProt Q9HBE4 30-162) | 0.172 | 
PD-1 mAb x IL-21 K75G (Mutant 75) (from UniProt Q9HBE4 30-162) | 0.163 | 
PD-1 mAb x IL-21 R9D (Mutant 22) (from UniProt Q9HBE4 30-162) | > 100 | 
PD-1 mAb x IL-21 I16D (Mutant 44) (from UniProt Q9HBE4 30-162) | 0.094 | 
anti-PD-1 mAb fused to an IL-21 (R5Q:R76E) mutein (monomer) |  | pSTAT3 EC50, Hut78/PD-1 (IL-21R on Hut78 T cells): 341 pM

Substance | Kd (IL-21R-Fc) [nM] | further results
anti-PD-1 mAb x IL-21 R5Q:R76E homodimer fusion |  | Kd [1]: > 300 nM; Kd [2]: > 300 nM
PD-1 mAb x IL-21 Q19D (Mutant 46) (from UniProt Q9HBE4 30-162) | 0.17 | 
PD-1 mAb x IL-21 D15V (Mutant C14) (from UniProt Q9HBE4 30-162) | 5.47 | 
PD-1 mAb x IL-21 R76Y (Mutant 92) (from UniProt Q9HBE4 30-162) | 0.265 | 
PD-1 mAb x IL-21 I8S (Mutant 20) (from UniProt Q9HBE4 30-162) | 4 | 
PD-1 mAb x IL-21 L13D (Mutant 43) (from UniProt Q9HBE4 30-162) | 11 | 
anti-TIGIT mAb fused to an IL-21 (R5Q:R76E) mutein (dimer) |  | pSTAT3 EC50, Hut78/TIGIT (IL-21R on Hut78 T cells): 1390 pM
PD-1 mAb x IL-21 Q12E (Mutant 38) (from UniProt Q9HBE4 30-162) | 0.031 | 
PD-1 mAb x IL-21 R9A (Mutant 21) (from UniProt Q9HBE4 30-162) | 6.84 | 
PD-1 mAb x IL-21 K73S (Mutant 72) (from UniProt Q9HBE4 30-162) | 0.167 | 
PD-1 mAb x IL-21 R9Y (Mutant 35) (from UniProt Q9HBE4 30-162) | 0.63 | 
PD-1 mAb x IL-21 K73G (Mutant 66) (from UniProt Q9HBE4 30-162) | 0.253 | 
Nivo huIgG1 mAb |  | Kd (cynoPD1(1-167)-Flag-His): 3.5 nM
PD-1 mAb x IL-21 K72G (Mutant 61) (from UniProt Q9HBE4 30-162) | 0.25 | 
PD-1 mAb x IL-21 V69D (Mutant 54) (from UniProt Q9HBE4 30-162) | 0.0395 | 
PD-1 mAb x IL-21 D15A (Mutant c6) (from UniProt Q9HBE4 30-162) | 0.439 | 
PD-1 mAb x IL-21 R76P (Mutant 87) (from UniProt Q9HBE4 30-162) | 0.4 | 
PD-1 mAb x IL-21 S70P (Mutant 59) (from UniProt Q9HBE4 30-162) | 10 | 
PD-1 mAb x IL-21 R76D (Mutant 78) (from UniProt Q9HBE4 30-162) | 12 | 

Substance | Kd (IL-21R-Fc) [nM] | further results
anti-PD-1 mAb x IL-21 R9E:R76A homodimer fusion |  | pSTAT3 EC50, Hut78 PD-1+ T cells (n1) (IL-21R on Hut78 T cells): 16.6 nM; pSTAT3 EC50, Hut78 PD-1- T cells (n1) (IL-21R on Hut78 T cells): > 1 µM; pSTAT3 EC50, Hut78 PD-1- T cells (n2) (IL-21R on Hut78 T cells): > 1 µM; Kd [3]: 5.9 nM; Kd [4]: 8.9 nM; Kd [1]: > 300 nM; Kd [2]: > 300 nM
PD-1 mAb x IL-21 K72P (Mutant 62) (from UniProt Q9HBE4 30-162) | 8.96 | 
PD-1 mAb x IL-21 I66P (Mutant 53) (from UniProt Q9HBE4 30-162) | 7.11 | 
PD1 mAb x R9E:R76A monomer (chimera, mouse IgG1 constant region, C-terminal human IL-21 R9E:R76A) |  | Hut78 PD1 (+) Interpolated EC50 (IL-21R on Hut78 T cells): 1.97 nM; Hut78 PD-1 (-) Interpolated EC50 (IL-21R on Hut78 T cells): > 1000 nM; PD-1 reporter Interpolated EC50 [5]: 1.61 nM; Kd [6]: > 300 nM; Kd [7]: 2.6 nM
anti-PD-1 mAb x IL-21 R5E:R76A homodimer fusion |  | pSTAT3 EC50, Hut78 PD-1+ T cells (n1) (IL-21R on Hut78 T cells): 1.98 nM; pSTAT3 EC50, Hut78 PD-1+ T cells (n2) (IL-21R on Hut78 T cells): 1.49 nM; pSTAT3 EC50, Hut78 PD-1- T cells (n1) (IL-21R on Hut78 T cells): > 1 µM; pSTAT3 EC50, Hut78 PD-1- T cells (n2) (IL-21R on Hut78 T cells): > 1 µM; Kd [3]: 5.9 nM; Kd [4]: 7 nM; Kd [1]: > 300 nM; Kd [2]: > 300 nM
PD-1 mAb x IL-21 R65P (Mutant 50) (from UniProt Q9HBE4 30-162) | 0.9 | 
PD-1 mAb x IL-21 P78D (Mutant 96) (from UniProt Q9HBE4 30-162) | 1.23 | 
PD-1 mAb x IL-21 R5A (Mutant 100) (from UniProt Q9HBE4 30-162) | 0.237 | 
PD-1 mAb x IL-21 R76M (Mutant 85) (from UniProt Q9HBE4 30-162) | 0.6 | 
PD-1 mAb x IL-21 Q12N (Mutant 39) (from UniProt Q9HBE4 30-162) | 0.38 | 
PD-1 mAb x IL-21 S70Y (Mutant 101) (from UniProt Q9HBE4 30-162) | 0.237 | 
PD-1 mAb x IL-21 K72D (Mutant 60) (from UniProt Q9HBE4 30-162) | 0.235 | 
PD-1 mAb x IL-21 D15S (Mutant C12) (from UniProt Q9HBE4 30-162) | 6.6 | 
PD-1 mAb x IL-21 S80G (Mutant 98) (from UniProt Q9HBE4 30-162) | 0.265 | 
PD-1 mAb x IL-21 R76E (Mutant 79) |  | Kd [1]: > 10 nM; Kd [2]: > 10 nM
PD-1 mAb x IL-21 S70G (Mutant 58) (from UniProt Q9HBE4 30-162) | 0.518 | 
PD-1 mAb x IL-21 I66G (Mutant 52) (from UniProt Q9HBE4 30-162) | 4.55 | 
PD-1 mAb x IL-21 Q116E (Mutant C21) (from UniProt Q9HBE4 30-162) | 7.95 | 
PD-1 mAb x IL-21 D15N (Mutant C10) (from UniProt Q9HBE4 30-162) | 11 | 
